In patent publication US20230114801A1 (SYSTIMMUNE, published 2023) one finds Kd data, which are given here for 4 molecules.

Test [1] deals with T1, human 4-1BB (human, UniProt Q07011 24-186, limits assumed).
T1 construct: Soluble antigen in Octet; construct not described
In words: BLI (Octet), unstapled control mAb or Fc-scFv. (In general: In BLI a coated tip is dipped into the sample, and binding shifts an interference pattern.)

Test [2] addresses T2, human PD-L1 (human, UniProt Q9NZQ7 19-238).
T2 construct: Soluble antigen in Octet; bought; also called human PD-L1 (Acro PD1-H5229)
The test can be described thus: BLI (Octet), unstapled control mAb or Fc-scFv.

Test [3] addresses T2, human PD-L1. In words: BLI (Octet); conditions not stated.
In the next test the target is T3, CD19 (UniProt P15391 20-291, limits assumed).
T3 sequence (looked up): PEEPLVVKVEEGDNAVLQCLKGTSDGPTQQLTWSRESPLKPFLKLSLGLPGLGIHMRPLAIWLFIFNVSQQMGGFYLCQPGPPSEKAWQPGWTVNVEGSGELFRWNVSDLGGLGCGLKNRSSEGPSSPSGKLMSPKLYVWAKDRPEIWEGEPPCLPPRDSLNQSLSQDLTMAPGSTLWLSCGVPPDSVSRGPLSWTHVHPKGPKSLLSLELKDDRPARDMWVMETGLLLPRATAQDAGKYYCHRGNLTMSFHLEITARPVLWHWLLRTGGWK
The test can be described thus: BLI (Octet); conditions not stated.

The target in test [4] is T1, human 4-1BB. In words: BLI (Octet); conditions not stated.
The target in the next test is T4, human CD3 (human, UniProt P07766 23-126; P04234 22-105).
T4 construct: also called His-tagged human CD3; human CD3 (Acro CDD-H52W1)
In words: BLI (Octet); conditions not stated.

Another test addresses NKG2D ligand. In words: BLI (Octet); conditions and ligand not stated.
A further test concerns the target T5, CEA (UniProt P06731 35-685, limits assumed).
T5 sequence (looked up): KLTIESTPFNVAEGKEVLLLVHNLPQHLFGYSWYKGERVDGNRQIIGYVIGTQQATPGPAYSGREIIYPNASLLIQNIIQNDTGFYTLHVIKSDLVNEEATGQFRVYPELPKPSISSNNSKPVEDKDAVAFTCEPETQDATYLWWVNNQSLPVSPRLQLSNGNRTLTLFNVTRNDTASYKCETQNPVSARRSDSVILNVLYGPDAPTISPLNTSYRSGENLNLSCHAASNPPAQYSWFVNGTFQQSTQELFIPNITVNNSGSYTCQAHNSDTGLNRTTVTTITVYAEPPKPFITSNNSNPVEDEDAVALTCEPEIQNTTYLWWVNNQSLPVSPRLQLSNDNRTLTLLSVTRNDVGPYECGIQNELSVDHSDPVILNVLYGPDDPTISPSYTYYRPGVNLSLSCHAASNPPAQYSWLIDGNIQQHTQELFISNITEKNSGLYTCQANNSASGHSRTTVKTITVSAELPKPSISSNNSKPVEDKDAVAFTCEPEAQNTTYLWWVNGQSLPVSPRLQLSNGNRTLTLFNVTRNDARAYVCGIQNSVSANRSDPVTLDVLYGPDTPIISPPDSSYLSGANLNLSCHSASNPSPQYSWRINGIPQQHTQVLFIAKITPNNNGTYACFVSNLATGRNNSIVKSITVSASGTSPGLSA
The test can be described thus: BLI (Octet), unstapled control mAb or Fc-scFv.

B1: SI-35FS11 (Fc fusion)
chain: EPKSSDKTHTCPPCPAPEAAGAPSVFLFPPKPKDTLMISRTPEVTCVVVDVSHEDPEVKFNWYVDGVEVHNAKTKPREEQYNSTYRVVSVLTVLHQDWLNGKEYKCAVSNKALPAPIEKTISKAKGQPREPQVYTLPPSRDELTKNQVSLTCLVKGFYPSDIAVEWESNGQPENNYKTTPPVLDSDGSFFLYSKLTVDKSRWQQGNVFSCSVMHEALHNHYTQKSLSLSPGGGGGSGGGGSRSLVESGGGLVQPGGSLRLSCTASGFTISSYHMQWVRQAPGKGLEYIGTISSGGNVYYASSARGRFTISRPSSKNTVDLQMNSLRAEDTAVYYCARDSGYSDPMWGQGTLVTVSSGGGGSGGGGSGGGGSGGGGSDVVMTQSPSSVSASVGDRVTITCQASQNIRTYLSWYQQKPGKAPKLLIYAAANLASGVPSRFSGSGSGTDFTLTISDLEPGDAATYYCQSTYLGTDYVGGAFGGGTKVEIK
notes: Fc-scFv control for the α4-1BB domain; also called SI-35SF11; α4-1BB Fc-scFv
Consider B1, for which the Kd (commonly the free concentration of one partner at which half of the binding sites on the other are occupied at equilibrium, for simple one-to-one binding) with human 4-1BB [1] came to 14.9 nM.

B2: SI-3FS11 (Fc fusion)
chain: EPKSSDKTHTCPPCPAPEAAGAPSVFLFPPKPKDTLMISRTPEVTCVVVDVSHEDPEVKFNWYVDGVEVHNAKTKPREEQYNSTYRVVSVLTVLHQDWLNGKEYKCAVSNKALPAPIEKTISKAKGQPREPQVYTLPPSRDELTKNQVSLTCLVKGFYPSDIAVEWESNGQPENNYKTTPPVLDSDGSFFLYSKLTVDKSRWQQGNVFSCSVMHEALHNHYTQKSLSLSPGGGGGSGGGGSEVQLLESGGGLVQPGGSLRLSCAASGFSFSSGYDMCWVRQAPGKGLEWIACIAAGSAGITYDANWAKGRFTISRDNSKNTLYLQMNSLRAEDTAVYYCARSAFSFDYAMDLWGQGTLVTVSSGGGGSGGGGSGGGGSGGGGSDIQMTQSPSTLSASVGDRVTITCQASQSISSHLNWYQQKPGKAPKLLIYKASTLASGVPSRFSGSGSGTEFTLTISSLQPDDFATYYCQQGYSWGNVDNVFGGGTKVEIK
notes: Fc-scFv control for the αPD-L1 domain; also called SI-3SF11; αPD-L1 Fc-scFv
B2 gave a Kd in the test with human PD-L1 [2] of 0.94 nM.

B3: SI-49PM1 (other)
chain 1: FLNSLFNQEVQIPLTESYCGPCPKNWICYKNNCYQFFDESKNWYESQASCMSQNASLLKVYSKEDQDLLKLVKSYHWMGLVHIPTNGSWQWEDGSILSPNLLTIIEMQKGDCALYASSFKGYIENCSTPNTYICMQRTVGGGGSGGGGSGGGGSGGGGSFLNSLFNQEVQIPLTESYCGPCPKNWICYKNNCYQFFDESKNWYESQASCMSQNASLLKVYSKEDQDLLKLVKSYHWMGLVHIPTNGSWQWEDGSILSPNLLTIIEMQKGDCALYASSFKGYIENCSTPNTYICMQRTVVDGGGGSGGGGSEVQLVESGGGLVQPGGSLRLSCAASGFTISTNAMSWVRQAPGKGLEWIGVITGRDITYYASWAKGRFTISRDNSKNTLYLQMNSLRAEDTAVYYCARDGGSSAITSNNIWGQGTLVTVSSASTKGPSVFPLAPSSKSTSGGTAALGCLVKDYFPEPVTVSWNSGALTSGVHTFPAVLQSSGLYSLSSVVTVPSSSLGTQTYICNVNHKPSNTKVDKRVEPKSCDKTHTCPPCPAPEAAGGPSVFLFPPKPKDTLMISRTPEVTCVVVDVSHEDPEVKFNWYVDGVEVHNAKTKPREEQYASTYRVVSVLTVLHQDWLNGKEYKCAVSNKALPAPIEKTISKAKGQPREPQVCTLPPSRDELTKNQVSLSCAVKGFYPSDIAVEWESNGQPENNYKTTPPVLDSDGSFFLVSKLTVDKSRWQQGNVFSCSVMHEALHNHYTQKSLSLSPGGGGGSGGGGSRSLVESGGGLVQPGGSLRLSCTASGFTISSYHMQWVRQAPGKCLEYIGTISSGGNVYYASSARGRFTISRPSSKNTVDLQMNSLRAEDTAVYYCARDSGYSDPMWGQGTLVTVSSGGGGSGGGGSGGGGSGGGGSDVVMTQSPSSVSASVGDRVTITCQASQNIRTYLSWYQQKPGKAPKLLIYAAANLASGVPSRFSGSGSGTDFTLTISDLEPGDAATYYCQSTYLGTDYVGGAFGCGTKVEIK
chain 2: ENVLTQSPASLSASPGERVTITCSASSSVSYMHWYQQKPGQAPKLWIYDTSKLASGVPSRFSGSGSGNDHTLTISSMEPEDFATYYCFQGSVYPFTFGQGTKVTVLGGGGSGGGGSGGGGSGGGGSQVTLKESGPGLVQPGQTLSLTCAFSGFSLSTSGMGVGWIRQPPGKGLEWLAHIWWDDDKRYNPALKSRLTISKDTSKNQVYLQMNSLDAEDTAVYYCARMELWSYYFDYWGQGTLVTVSSGGGGSGGGGSDVVMTQSPSTLSASVGDRVTINCQASESISSWLAWYQQKPGKAPKLLIYEASKLASGVPSRFSGSGSGTEFTLTISSLQPDDFATYYCQGYFYFISRTYVNSFGGGTKVEIKRTVAAPSVFIFPPSDEQLKSGTASVVCLLNNFYPREAKVQWKVDNALQSGNSQESVTEQDSKDSTYSLSSTLTLSKADYEKHKVYACEVTHQGLSSPVTKSFNRGECGGDKTHTCPPCPAPEAAGGPSVFLFPPKPKDTLMISRTPEVTCVVVDVSHEDPEVKFNWYVDGVEVHNAKTKPREEQYNSTYRVVSVLTVLHQDWLNGKEYKCAVSNKALPAPIEKTISKAKGQPREPQVYTLPPSRDELTKNQVSLWCLVKGFYPSDIAVEWESNGQPENNYKTTPPVLDSDGSFFLYSKLTVDKSRWQQGNVFSCSVMHEALHNRFTQKSLSLSPGGGGGSGGGGSDIQMTQSPSTLSASVGDRVTITCQASQSISSHLNWYQQKPGKAPKLLIYKASTLASGVPSRFSGSGSGTEFTLTISSLQPDDFATYYCQQGYSWGNVDNVFGGGTKVTVLGGGGSGGGGSGGGGSGGGGSEVQLLESGGGLVQPGGSLSLSCAASGFSFSSGYDMCWVRQAPGKGLEWIACIAAGSAGITYDANWAKGRFTISRDNSKNTLYLQMNSLRAEDTAVYYCARSAFSFDYAMDLWGQGTLVTVSS
notes: control penta-miniGNC; D1 NKG2D (tandem dimer), D2 αCD19, D3 αCD3 (Fab), D4 α4-1BB, D5 αPD-L1
With B3, the Kd with human PD-L1 [3] is 2.23 nM; with CD19, 5.5 nM; with human 4-1BB [4], 2.74 nM; with human CD3, 30.2 nM; with NKG2D ligand it was 24.5 nM.

B4: SI-20C14 (antibody, human IgG1, kappa, V domains shown)
VH: EVQLVESGGGLVQPGGSLRLSCAASGFSFSGTQYVCWVRQAPGKGLEWIGCIYVDVANTYYATSVKGRFTISRDNSKNTLYLQMNSLRAEDTAVYYCASHDTVCAGCGLDLWGQGTLVTVSS
VL: DIQMTQSPSTLSASVGDRVTITCQASENIYSNLAWYQQKPGKAPKLLIYDASTLASGVPSRFSGSGSGTEFTLTISSLQPDDFATYYCQSTYYNNIIYGAAFGGGTKVEIKR
notes: monoclonal antibody control for the αCEA domain; also called αCEA mAb 656E11; SI-20C14 (anti-CEA 656E11)
In the test with CEA, B4 gave a Kd of under 0.001 nM.
